Here are results for one substance from PMC3439350.

The target in the assay is yAsf1*^532 (full-length yeast Asf1, residues 1 to 279, labeled at position -1 with Alexa Fluor 532) (S. cerevisiae) (UniProt P32447). Put plainly: other fluorescence titration; fluorescence quenching: unlabeled histones titrated into 1 nM yAsf1*^532; 20°C; 150 mM KCl, 2 mM MgCl2, 10 mM Tris-HCl pH 7.5, 1% glycerol, 0.05% Brij-35, 0.5 mM TCEP; ligand-depleted binding model.

Regarding “H3/H4^∆94 (Xenopus laevis, H3 C110A and H4 T71C Δ94-102) (from UniProt P84233 1-136; P62799 1-94) (complex)”, the Kd was found to be 0.4 nM.

The Kd is the free concentration of one partner at which half of the binding sites on the other are occupied at equilibrium, for simple one-to-one binding. Read a high Kd as lower affinity.
